Assays:
[1] = test system: HeLa Kyoto; test: solubility in G1/S (NP-40 vs SDS abundance) (log2 ratio); higher = more soluble; details: cell cycle stage: G1/S
[2] = test system: HeLa Kyoto; test: thermal stability score vs G1/S (z-score of summed log2 fold changes over temperatures); higher = more thermally stable than in G1/S
[3] = test system: HeLa Kyoto; test: melting temperature (median over replicates), in situ; higher = more thermally stable
[4] = test system: HeLa Kyoto; test: solubility change mitosis vs G1/S (difference of NP-40 vs SDS log2 ratios) (log2 ratio difference); higher = more soluble in mitosis
[5] = cell cycle stage: early G1 (4.5 h after nocodazole release)
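Wherever melting temperature (median over replicates), in situ is given: HeLa Kyoto cells synchronized by double thymidine or nocodazole block, proteins quantified by TMT10plex mass spectrometry, three independent biological replicates.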
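Wherever solubility change mitosis vs G1/S (difference of NP-40 vs SDS log2 ratios) is given: synchronized HeLa Kyoto cells (double thymidine block for G1/S, nocodazole release for mitosis), protein amounts in NP-40 versus SDS lysates quantified by mass spectrometry, three biological replicates.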
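Wherever solubility in G1/S (NP-40 vs SDS abundance) is given: HeLa Kyoto cells arrested at G1/S by double thymidine block, proteins quantified by TMT10plex mass spectrometry in mild NP-40 versus SDS extracts, three biological replicates.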
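Wherever thermal stability score vs G1/S (z-score of summed log2 fold changes over temperatures) is given: synchronized HeLa Kyoto cells, proteins quantified by TMT10plex mass spectrometry, three biological replicates, mitosis taken 0.5 h after nocodazole release, G1/S directly after double thymidine block.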

Row | Sequence | solubility in G1/S (log2) [1] | thermal stability score [2, 5] | thermal stability score ([2]; cell cycle stage: mitosis) | melting temperature ([3]; cell cycle stage: G1/S) [°C] | melting temperature ([3]; cell cycle stage: mitosis) [°C] | solubility change mitosis (log2) [4]
1 | MAEFLDDQETRLCDNCKKEIPVFNFTIHEIHCQRNIGMCPTCKEPFPKSDMETHMAAEHCQVTCKCNKKLEKRLLKKHEETECPLRLAVCQHCDLELSILKLKEHEDYCGARTELCGNCGRNVLVKDLKTHPEVCGREGEEKRNEVAIPPNAYDESWGQDGIWIASQLLRQIEALDPPMRLPRRPLRAFESDVFHNRTTNQRNITAQVSIQNNLFEEQERQERNRGQQPPKEGGEESANLDFMLALSLQNEGQASSVAEQDFWRAVCEADQSHGGPRSLSDIKGAADEIMLPCEFCEELYPEELLIDHQTSCNPSRALPSLNTGSSSPRGVEEPDVIFQNFLQQAASNQLDSLMGLSNSHPVEESIIIPCEFCGVQLEEEVLFHHQDQCDQRPATATNHVTEGIPRLDSQPQETSPELPRRRVRHQGDLSSGYLDDTKQETANGPTSCLPPSRPINNMTATYNQLSRSTSGPRPGCQPSSPCVPKLSNSDSQDIQGRNRDSQNGAIAPGHVSVIRPPQNLYPENIVPSFSPGPSGRYGASGRSEGGRNSRVTPAAANYRSRTAKAKPSKQQGAGDAEEEEEE [TRAFD1] | 0.132 | -1.71 | -2.27 | 53.8 | 53.9 | -0.0897
2 | MAEGNHRKKPLKVLESLGKDFLTGVLDNLVEQNVLNWKEEEKKKYYDAKTEDKVRVMADSMQEKQRMAGQMLLQTFFNIDQISPNKKAHPNMEAGPPESGESTDALKLCPHEEFLRLCKERAEEIYPIKERNNRTRLALIICNTEFDHLPPRNGADFDITGMKELLEGLDYSVDVEENLTARDMESALRAFATRPEHKSSDSTFLVLMSHGILEGICGTVHDEKKPDVLLYDTIFQIFNNRNCLSLKDKPKVIIVQACRGANRGELWVRDSPASLEVASSQSSENLEEDAVYKTHVEKDFIAFCSSTPHNVSWRDSTMGSIFITQLITCFQKYSWCCHLEEVFRKVQQSFETPRAKAQMPTIERLSMTRYFYLFPGN [CASP4] | 0.0521 | 0.457 | 0.45 |  | 50.5 | -0.0831
3 | MAELDPFGAPAGAPGGPALGNGVAGAGEEDPAAAFLAQQESEIAGIENDEAFAILDGGAPGPQPHGEPPGGPDAVDGVMNGEYYQESNGPTDSYAAISQVDRLQSEPESIRKWREEQMERLEALDANSRKQEAEWKEKAIKELEEWYARQDEQLQKTKANNRVADEAFYKQPFADVIGYVTNINHPCYSLEQAAEEAFVNDIDESSPGTEWERVARLCDFNPKSSKQAKDVSRMRSVLISLKQAPLVH [CLTA] | 0.31 | -6.01 | -4.14 | 54.7 |  | 0.362
4 | MAELSEEALLSVLPTIRVPKAGDRVHKDECAFSFDTPESEGGLYICMNTFLGFGKQYVERHFNKTGQRVYLHLRRTRRPKEEDPATGTGDPPRKKPTRLAIGVEGGFDLSEEKFELDEDVKIVILPDYLEIARDGLGGLPDIVRDRVTSAVEALLSADSASRKQEVQAWDGEVRQVSKHAFSLKQLDNPARIPPCGWKCSKCDMRENLWLNLTDGSILCGRRYFDGSGGNNHAVEHYRETGYPLAVKLGTITPDGADVYSYDEDDMVLDPSLAEHLSHFGIDMLKMQKTDKTMTELEIDMNQRIGEWELIQESGVPLKPLFGPGYTGIRNLGNSCYLNSVVQVLFSIPDFQRKYVDKLEKIFQNAPTDPTQDFSTQVAKLGHGLLSGEYSKPVPESGDGERVPEQKEVQDGIAPRMFKALIGKGHPEFSTNRQQDAQEFFLHLINMVERNCRSSENPNEVFRFLVEEKIKCLATEKVKYTQRVDYIMQLPVPMDAALNKEELLEYEEKKRQAEEEKMALPELVRAQVPFSSCLEAYGAPEQVDDFWSTALQAKSVAVKTTRFASFPDYLVIQIKKFTFGLDWVPKKLDVSIEMPEELDISQLRGTGLQPGEEELPDIAPPLVTPDEPKGSLGFYGNEDEDSFCSPHFSSPTSPMLDESVIIQLVEMGFPMDACRKAVYYTGNSGAEAAMNWVMSHMDDPDFANPLILPGSSGPGSTSAAADPPPEDCVTTIVSMGFSRDQALKALRATNNSLERAVDWIFSHIDDLDAEAAMDISEGRSAADSISESVPVGPKVRDGPGKYQLFAFISHMGTSTMCGHYVCHIKKEGRWVIYNDQKVCASEKPPKDLGYIYFYQRVAS [USP5] | 0.218 | 0.203 | 0.183 | 52 | 51.9 | -0.139
5 | MAELVQGQSAPVGMKAEGFVDALHRVRQIAAKIDSIPHLNNSTPLVDPSVYGYGVQKRPLDDGVGNQLGALVHQRTVITEEFKVPDKMVGFIIGRGGEQISRIQAESGCKIQIASESSGIPERPCVLTGTPESIEQAKRLLGQIVDRCRNGPGFHNDIDSNSTIQEILIPASKVGLVIGRGGETIKQLQERTGVKMVMIQDGPLPTGADKPLRITGDAFKVQQAREMVLEIIREKDQADFRGVRGDFNSRMGGGSIEVSVPRFAVGIVIGRNGEMIKKIQNDAGVRIQFKPDDGISPERAAQVMGPPDRCQHAAHIISELILTAQERDGFGGLAAARGRGRGRGDWSVGAPGGVQEITYTVPADKCGLVIGKGGENIKSINQQSGAHVELQRNPPPNSDPNLRRFTIRGVPQQIEVARQLIDEKVGGTNLGAPGAFGQSPFSQPPAPPHQNTFPPRSSGCFPNMAAKVNGNPHSTPVSGPPAFLTQGWGSTYQAWQQPTQQVPSQQSQPQSSQPNYSKAWEDYYKKQSHAASAAPQASSPPDYTMAWAEYYRQQVAFYGQTLGQAQAHSQEQ [FUBP3] | 0.337 | 0.0807 | 1.05 | 48.7 | 49.5 | -0.0288
